Laboratory results: patent US20040224408A1, “THAP proteins as nuclear receptors for chemokines and roles in transcriptional regulation, cell proliferation and cell differentiation” (published 2004)

T1: GST-THAP1 fusion protein (pGEX-2T-THAP1) (human, UniProt Q5RCE4 1-213 (Pongo abelii entry))
T1 construct: Expressed in E. coli DH5alpha and immobilized on glutathione sepharose; also called GST-THAP1 wild-type; not shown: Glutathione S-transferase (GST) encoded by the pGEX-2T prokaryotic expression vector (Amersham Pharmacia Biotech); N-ter
T1 sequence: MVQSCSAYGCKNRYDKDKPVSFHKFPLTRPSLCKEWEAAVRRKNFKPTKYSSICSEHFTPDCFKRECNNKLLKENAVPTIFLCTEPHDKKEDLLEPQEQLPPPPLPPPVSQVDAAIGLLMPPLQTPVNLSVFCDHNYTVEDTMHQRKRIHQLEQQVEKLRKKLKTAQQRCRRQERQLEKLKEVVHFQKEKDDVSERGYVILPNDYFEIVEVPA

T2: human THAP1 (THanatos (death)-Associated Protein-1), full length (human, UniProt Q9NVV9 1-213)
T2 construct: also called hTHAP1; FLJ10477
T2 sequence: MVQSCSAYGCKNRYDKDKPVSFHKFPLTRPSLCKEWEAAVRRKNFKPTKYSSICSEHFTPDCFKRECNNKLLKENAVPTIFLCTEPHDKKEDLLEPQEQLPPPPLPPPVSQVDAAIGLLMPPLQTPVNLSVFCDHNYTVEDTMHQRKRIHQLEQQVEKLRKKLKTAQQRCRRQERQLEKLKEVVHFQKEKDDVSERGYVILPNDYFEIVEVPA

T3: human chemokine SLC/CCL21, mature form (amino acids 24-134) (human, UniProt O00585 24-134)
T3 construct: also called SLC/6Ckine; SLC/CCL21 wild type
T3 sequence: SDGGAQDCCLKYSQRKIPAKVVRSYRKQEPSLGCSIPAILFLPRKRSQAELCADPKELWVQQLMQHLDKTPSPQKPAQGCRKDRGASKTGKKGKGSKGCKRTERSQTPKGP


Experiments:
[1] = target: T1, GST-THAP1 fusion protein (pGEX-2T-THAP1); test: GST pull-down, immobilized GST-THAP1, in vitro translated 35S-labelled IFNγ
Method: To confirm the interaction observed in yeast two-hybrid system, we performed in vitro GST pull down assays. THAP1, expressed as a GST-tagged fusion protein and immobilized on glutathione sepharose, was incubated with radiolabeled chemokines that were translated in vitro.
In vitro-translated chemokines were generated with the TNT-coupled reticulocyte lysate system (Promega, Madison, Wis., USA) using as templates pGBKT7-CCL21, -CCL19, -CXCL9, -CXCL10 and CXCL11 chemokine vectors (see Example 32) or pCMV-SPORT6-CCL5 plasmid (Image clone No. 4185200). In vitro-translated IFNγ cytokine was generated similarly using as template plasmid pGBKT7-IFNγ. A 25 μvolume of ³⁵S-labelled chemokine was incubated with immobilized GST-THAP1 or GST proteins overnight at 4° C., in the following binding buffer: 10 mM NaPO4 pH 8.0, 140 mM NaCl, 3 mM MgCl₂, 1 mM dithiothreitol (DTT), 0.05% NP40, and 0.2 mM phenylmethyl sulphonyl fluoride (PMSF), 1 mM Na vanadate, 50 mM β-glycerophosphate, 25 μg/ml chymotrypsine, 5 μg/ml aprotinin, and 10 μg/ml leupeptin. Beads were then washed 5 times in 1 ml binding buffer. Bound proteins were eluted with 2×Laemmli SDS-PAGE sample buffer, fractionated by 10% SDS-PAGE and visualized by fluorography using Amplify (Amersham Pharmacia Biotech). GST/THAP1 specifically bound to chemokines CCL21, CCL19, CCL5, CXCL9, CXCL10 and CXCL11 but not cytokine IFNγ (FIGS. 19 and 20). […]

[2] = target: T4, Glutathione S-transferase (GST) control protein (pGEX-2T) (UniProt P08515 1-218 = GST); test: GST pull-down, immobilized GST control, in vitro translated 35S-labelled IFNγ
T4 construct: Negative control immobilized on glutathione sepharose; also called GST beads; immobilized GST alone
T4 sequence (P08515 whole entry): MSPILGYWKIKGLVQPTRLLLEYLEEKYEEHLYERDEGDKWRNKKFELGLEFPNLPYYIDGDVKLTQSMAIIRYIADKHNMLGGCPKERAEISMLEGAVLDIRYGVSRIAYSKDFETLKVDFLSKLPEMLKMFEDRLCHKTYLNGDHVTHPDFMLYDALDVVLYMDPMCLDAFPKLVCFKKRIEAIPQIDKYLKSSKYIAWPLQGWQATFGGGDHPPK
Method: In vitro-translated chemokines were generated with the TNT-coupled reticulocyte lysate system (Promega, Madison, Wis., USA) using as templates pGBKT7-CCL21, -CCL19, -CXCL9, -CXCL10 and CXCL11 chemokine vectors (see Example 32) or pCMV-SPORT6-CCL5 plasmid (Image clone No. 4185200). In vitro-translated IFNγ cytokine was generated similarly using as template plasmid pGBKT7-IFNγ. A 25 μvolume of ³⁵S-labelled chemokine was incubated with immobilized GST-THAP1 or GST proteins overnight at 4° C., in the following binding buffer: 10 mM NaPO4 pH 8.0, 140 mM NaCl, 3 mM MgCl₂, 1 mM dithiothreitol (DTT), 0.05% NP40, and 0.2 mM phenylmethyl sulphonyl fluoride (PMSF), 1 mM Na vanadate, 50 mM β-glycerophosphate, 25 μg/ml chymotrypsine, 5 μg/ml aprotinin, and 10 μg/ml leupeptin. Beads were then washed 5 times in 1 ml binding buffer. Bound proteins were eluted with 2×Laemmli SDS-PAGE sample buffer, fractionated by 10% SDS-PAGE and visualized by fluorography using Amplify (Amersham Pharmacia Biotech). GST/THAP1 specifically bound to chemokines CCL21, CCL19, CCL5, CXCL9, CXCL10 and CXCL11 but not cytokine IFNγ (FIGS. 19 and 20). […] CXCL10 also bound to immobilized GST-THAP1 (indicated by ++ in the column labelled “In vitro binding to GST-THAP1”).

human THAP1 (THanatos …) [3] = target: T2, human THAP1 (THanatos …); test: yeast two-hybrid, pGADT7-THAP1 with pGBKT7-IFNγ
Description: […]

[4] = target: T3, human chemokine SLC/CCL21, mature form …; test: yeast two-hybrid, pGADT7-THAP1 mutant with pGBKT7-SLC/CCL21
Method: Two-hybrid interaction between THAP1 mutants and chemokine SLC/CCL21 was tested by cotransformation of AH109 with pGADT7-THAP1-C1, -C2, -C3, -N1, -N2 or -N3 and pGBKT7-SLC/CCL21 and selection of transformants by His and Ade double auxotrophy according to manufacturer's instructions ([…] two-hybrid system 3, Clontech). pGBKT7-SLC/CCL21 vector was generated by subcloning the BamHI SLC/CCL21 fragment from pGBT9-SLC (see example 1) into the unique BamHI cloning site of vector pGBKT7 (Clontech).

human THAP1 (THanatos …) [5] = target: T2, human THAP1 (THanatos …); test: yeast two-hybrid, pGADT7-THAP1 mutant with pGBKT7-THAP1 wild-type
Method: Two-hybrid interaction between THAP1 mutants and THAP1 wild type was tested by cotransformation of AH109 with pGADT7-THAP1-C1, -C2, -C3, -N1, -N2 or -N3 and pGBKT7-THAP1 wild-type and selection of transformants by His and Ade double auxotrophy according to manufacturer's instructions ([…] two-hybrid system 3, Clontech).

[6] = target: T1, GST-THAP1 fusion protein (pGEX-2T-THAP1); test: GST pull-down, immobilized GST-THAP1, in vitro translated 35S-labelled mutant
Method: To confirm the results obtained in yeast, THAP1 mutants were also tested in in vitro GST pull down assays. Wild type THAP1 expressed as a GST-tagged fusion protein and immobilized on glutathione sepharose (as described in example 16), was incubated with radiolabeled in vitro translated THAP1 mutants. In vitro-translated THAP1 mutants were generated with the TNT-coupled reticulocyte lysate system (Promega, Madison, Wis., USA) using pGADT7-THAP1-C1, -C2, -C3, -N1, -N2 or -N3 vector as template. 25 μl of each ³⁵S-labelled THAP1 mutant was incubated with immobilized GST or GST-THAP1 wild-type protein overnight at 4° C., in the following binding buffer: 10 mM NaPO4 pH 8.0, 140 mM NaCl, 3 mM MgCl2, 1 mM dithiothreitol (DTT), 0.05% NP40, and 0.2 mM phenylmethyl sulphonyl fluoride (PMSF), 1 mM Na Vanadate, 50 mM β Glycerophosphate, 25 μg/ml chimotrypsine, 5 μg/ml aprotinin, 10 μg/ml Leupeptin. Beads were then washed 5 times in 1 ml binding buffer. Bound proteins were eluted with 2×Laemmli SDS-PAGE sample buffer, fractionated by 10% SDS-PAGE and visualized by fluorography using Amplify (Amersham Pharmacia Biotech). As expected, THAP1-C1, -C2, -C3, -and -N3 interacted with GST/THAP1 (FIG. 16B).

binding result [1] | binding result [2] | binding result [4] | binding result [6] | Binder | binding result (human THAP1 (THanatos …) [3]) | binding result (human THAP1 (THanatos …) [5])
no binding | no binding | – | – | human cytokine IFNγ (amino acids 21-166) (ligand, Negative control; The range is stated on the GenBank entry; Tested as a Gal4-BD fusion (pGBKT7-IFNγ) and as in vitro translated 35S-labelled protein from that vector; also called interferon gamma; hIFNγ) CYCQDPYVKEAENLKKYFNAGHSDVADNGTLFLGILKNWKEESDRKIMQSQIVSFYFKLFKNFKDDQSIQKSVETIKEDMNVKFFNSNKKKRDDFEKLTNYSVTDLNVQRKAIHELIQVMAELSPAAKTGKRKRSQMLFQGRRASQ | no binding | –
– | – | no binding | no binding | THAP1-N1 deletion mutant (amino acids 1-90) (other, Tested as a Gal4-BD or Gal4-AD fusion, as in vitro translated 35S-labelled protein and as an EGFP fusion) MVQSCSAYGCKNRYDKDKPVSFHKFPLTRPSLCKEWEAAVRRKNFKPTKYSSICSEHFTPDCFKRECNNKLLKENAVPTIFLCTEPHDKK | – | no binding
